# Source: patent US12186436B2, “Triblock copolymer stabilizers for the formation of nanoparticles encapsulating soluble biologics, therapeutics, and imaging agents” (The Trustees of Princeton University, priority 2018, dated 2025)
# Assay: Release of biologic from nanoparticles in release buffer (fluorescence of soluble biologic after 100 kDa ultrafiltration)
# Format: physicochemical
# Details: nanoparticles made by Process 2
# Protocol: Release can be studied by diluting the final concentrated nanoparticle solution after ultrafiltration into the desired release buffer. The solutions can then be incubated under the required conditions of temperature and agitation. A suitable method to separate nanoparticles from released biologic can be employed at periodic time points to evaluate the released fraction. In one embodiment, ultrafiltration with a 100 kDa molecular weight cut-off is used to separate released biologic from the nanoparticles containing biologic that is still encapsulated.
# Residual acetone and unencapsulated biologic were removed by rinsing on a 100 kDa Amicon ultrafilter that had been pre-blocked to prevent non-specific adsorption. The nanoparticle solution was concentrated to around 15-20 mg/ml and rinsed with deionized water twice using a volume that was about 3-4 times the concentrated volume. The flow-through streams were analyzed by fluorescence to determine encapsulation efficiency. The nanoparticles were resuspended in the indicated release buffer and placed on a shaker table at 37° C. for release. […] Particle size was characterized by Dynamic Light Scattering (DLS) using a Zetasizer Nano ZS.
# Temperature was controlled in the centrifugation process to either 5° C. or 20° C. […] The flow-through streams were analyzed by fluorescence to determine encapsulation efficiency. […]
substance,measurement,value
lysozyme,time for lysozyme release to reach 90%,20 to 30 h
